Data reported in US20250264483A1, “IDENTIFICATION OF PROTHROMBOTIC CONDITIONS” (Sydney Local Health District, priority 2020, published 2025).

System: healthy donor platelets
Experiment: Procoagulant platelet flow cytometry assay, healthy donor whole blood with VITT patient plasma
Format: cell-based, human
Conditions: exogenous purified human PF4 25 μg/mL, VITT positive (n=6) and negative (n=8) cases (FIG. 12A)

B1: PF4: native human PF4 purified from expired platelet concentrate (protein, UniProt P02776 32-101, looked up)
Platelet factor 4: EAEEDGDLQCLCVKTTSQVRPRHITSLEVIKAGPHCPTAQLIATLKNGRKICLDLQAPLYKKIIKKLLES
- effect on flow cytometry assay results: did not alter the results
